{"source": "paper PMC6739210", "key": {"[1]": {"molecular_target": "Mortalin/GRP-75/mt-hsp70 (human (endogenous in MCF-7, MDA-MB-231 and K562)) (UniProt P38646)", "sequence (P38646 47-679)": "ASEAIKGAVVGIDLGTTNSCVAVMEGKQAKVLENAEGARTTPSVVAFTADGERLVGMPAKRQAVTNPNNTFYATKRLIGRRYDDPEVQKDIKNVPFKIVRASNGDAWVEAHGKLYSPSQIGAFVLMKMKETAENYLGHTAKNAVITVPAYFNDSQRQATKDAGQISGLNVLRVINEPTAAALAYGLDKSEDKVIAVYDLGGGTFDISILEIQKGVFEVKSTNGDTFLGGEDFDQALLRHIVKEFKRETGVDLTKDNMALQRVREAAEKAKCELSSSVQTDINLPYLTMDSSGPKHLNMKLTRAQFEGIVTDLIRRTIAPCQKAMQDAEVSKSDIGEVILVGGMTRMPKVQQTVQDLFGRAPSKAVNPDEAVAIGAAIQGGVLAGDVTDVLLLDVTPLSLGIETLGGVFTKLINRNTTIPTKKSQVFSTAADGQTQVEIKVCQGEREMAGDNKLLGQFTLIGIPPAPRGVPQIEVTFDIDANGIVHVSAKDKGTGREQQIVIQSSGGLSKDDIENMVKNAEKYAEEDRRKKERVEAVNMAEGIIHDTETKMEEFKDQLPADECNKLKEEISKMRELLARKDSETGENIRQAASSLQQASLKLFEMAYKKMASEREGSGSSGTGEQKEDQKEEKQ"}, "[2]": {"molecular_target": "Mortalin/GRP-75/mt-hsp70 (human (endogenous in MCF-7, MDA-MB-231 and K562)) (UniProt P38646)", "remark": "listed apart in the source"}}}
{"substance": "SMRwt-CPP peptide", "values": [{"measurement": "complement C9 level in extracellular vesicles of K562 cells after peptide and NHS, Western blot, compared to the NHS-treated controls", "setting": "[1]", "value": 24.3, "unit": "%"}, {"measurement": "complement C9 level in extracellular vesicles of MCF-7 cells after peptide and NHS, Western blot, compared to the NHS-treated controls", "setting": "[1]", "value": 37.5, "unit": "%"}, {"measurement": "complement C9 level in extracellular vesicles of MDA-MB-231 cells after peptide and NHS, Western blot, compared to the NHS-treated controls", "setting": "[1]", "value": 56.3, "unit": "%"}, {"measurement": "mortalin level in extracellular vesicles of K562 cells after peptide and NHS, Western blot, compared to the NHS-treated controls", "setting": "[1]", "value": 34.4, "unit": "%"}, {"measurement": "mortalin level in extracellular vesicles of MCF-7 cells after peptide and NHS, Western blot, compared to the NHS-treated controls", "setting": "[1]", "value": 48.4, "unit": "%"}, {"measurement": "mortalin level in extracellular vesicles of MDA-MB-231 cells after peptide and NHS, Western blot, compared to the NHS-treated controls", "setting": "[1]", "value": 27.5, "unit": "%"}, {"measurement": "complement-mediated cytotoxicity (trypan blue), percent cell death of K562 cells treated with 1120 nM peptide, anti-CXCR4 antibody, minus or plus normal human serum", "setting": "[2]", "value": 23, "unit": "%"}, {"measurement": "complement-mediated cytotoxicity (trypan blue), percent cell death of MCF-7 cells treated with 300 nM peptide, anti-CXCR4 antibody, minus or plus normal human serum", "setting": "[2]", "value": 29, "unit": "%"}, {"measurement": "complement-mediated cytotoxicity (trypan blue), percent cell death of MDA-MB-231 cells treated with 540 nM peptide, anti-CXCR4 antibody, minus or plus normal human serum", "setting": "[2]", "value": 9, "unit": "%"}]}
